Target: oncofetal fibronectin (human) (UniProt P02751)
Assay: lateral flow sandwich; FDC-6 blue latex conjugate and immobilised goat anti-fibronectin; TLiIQ reflectance reader
Details: scale: reflectance signal

Chain of UniProt P02751 (P02751 32-2477): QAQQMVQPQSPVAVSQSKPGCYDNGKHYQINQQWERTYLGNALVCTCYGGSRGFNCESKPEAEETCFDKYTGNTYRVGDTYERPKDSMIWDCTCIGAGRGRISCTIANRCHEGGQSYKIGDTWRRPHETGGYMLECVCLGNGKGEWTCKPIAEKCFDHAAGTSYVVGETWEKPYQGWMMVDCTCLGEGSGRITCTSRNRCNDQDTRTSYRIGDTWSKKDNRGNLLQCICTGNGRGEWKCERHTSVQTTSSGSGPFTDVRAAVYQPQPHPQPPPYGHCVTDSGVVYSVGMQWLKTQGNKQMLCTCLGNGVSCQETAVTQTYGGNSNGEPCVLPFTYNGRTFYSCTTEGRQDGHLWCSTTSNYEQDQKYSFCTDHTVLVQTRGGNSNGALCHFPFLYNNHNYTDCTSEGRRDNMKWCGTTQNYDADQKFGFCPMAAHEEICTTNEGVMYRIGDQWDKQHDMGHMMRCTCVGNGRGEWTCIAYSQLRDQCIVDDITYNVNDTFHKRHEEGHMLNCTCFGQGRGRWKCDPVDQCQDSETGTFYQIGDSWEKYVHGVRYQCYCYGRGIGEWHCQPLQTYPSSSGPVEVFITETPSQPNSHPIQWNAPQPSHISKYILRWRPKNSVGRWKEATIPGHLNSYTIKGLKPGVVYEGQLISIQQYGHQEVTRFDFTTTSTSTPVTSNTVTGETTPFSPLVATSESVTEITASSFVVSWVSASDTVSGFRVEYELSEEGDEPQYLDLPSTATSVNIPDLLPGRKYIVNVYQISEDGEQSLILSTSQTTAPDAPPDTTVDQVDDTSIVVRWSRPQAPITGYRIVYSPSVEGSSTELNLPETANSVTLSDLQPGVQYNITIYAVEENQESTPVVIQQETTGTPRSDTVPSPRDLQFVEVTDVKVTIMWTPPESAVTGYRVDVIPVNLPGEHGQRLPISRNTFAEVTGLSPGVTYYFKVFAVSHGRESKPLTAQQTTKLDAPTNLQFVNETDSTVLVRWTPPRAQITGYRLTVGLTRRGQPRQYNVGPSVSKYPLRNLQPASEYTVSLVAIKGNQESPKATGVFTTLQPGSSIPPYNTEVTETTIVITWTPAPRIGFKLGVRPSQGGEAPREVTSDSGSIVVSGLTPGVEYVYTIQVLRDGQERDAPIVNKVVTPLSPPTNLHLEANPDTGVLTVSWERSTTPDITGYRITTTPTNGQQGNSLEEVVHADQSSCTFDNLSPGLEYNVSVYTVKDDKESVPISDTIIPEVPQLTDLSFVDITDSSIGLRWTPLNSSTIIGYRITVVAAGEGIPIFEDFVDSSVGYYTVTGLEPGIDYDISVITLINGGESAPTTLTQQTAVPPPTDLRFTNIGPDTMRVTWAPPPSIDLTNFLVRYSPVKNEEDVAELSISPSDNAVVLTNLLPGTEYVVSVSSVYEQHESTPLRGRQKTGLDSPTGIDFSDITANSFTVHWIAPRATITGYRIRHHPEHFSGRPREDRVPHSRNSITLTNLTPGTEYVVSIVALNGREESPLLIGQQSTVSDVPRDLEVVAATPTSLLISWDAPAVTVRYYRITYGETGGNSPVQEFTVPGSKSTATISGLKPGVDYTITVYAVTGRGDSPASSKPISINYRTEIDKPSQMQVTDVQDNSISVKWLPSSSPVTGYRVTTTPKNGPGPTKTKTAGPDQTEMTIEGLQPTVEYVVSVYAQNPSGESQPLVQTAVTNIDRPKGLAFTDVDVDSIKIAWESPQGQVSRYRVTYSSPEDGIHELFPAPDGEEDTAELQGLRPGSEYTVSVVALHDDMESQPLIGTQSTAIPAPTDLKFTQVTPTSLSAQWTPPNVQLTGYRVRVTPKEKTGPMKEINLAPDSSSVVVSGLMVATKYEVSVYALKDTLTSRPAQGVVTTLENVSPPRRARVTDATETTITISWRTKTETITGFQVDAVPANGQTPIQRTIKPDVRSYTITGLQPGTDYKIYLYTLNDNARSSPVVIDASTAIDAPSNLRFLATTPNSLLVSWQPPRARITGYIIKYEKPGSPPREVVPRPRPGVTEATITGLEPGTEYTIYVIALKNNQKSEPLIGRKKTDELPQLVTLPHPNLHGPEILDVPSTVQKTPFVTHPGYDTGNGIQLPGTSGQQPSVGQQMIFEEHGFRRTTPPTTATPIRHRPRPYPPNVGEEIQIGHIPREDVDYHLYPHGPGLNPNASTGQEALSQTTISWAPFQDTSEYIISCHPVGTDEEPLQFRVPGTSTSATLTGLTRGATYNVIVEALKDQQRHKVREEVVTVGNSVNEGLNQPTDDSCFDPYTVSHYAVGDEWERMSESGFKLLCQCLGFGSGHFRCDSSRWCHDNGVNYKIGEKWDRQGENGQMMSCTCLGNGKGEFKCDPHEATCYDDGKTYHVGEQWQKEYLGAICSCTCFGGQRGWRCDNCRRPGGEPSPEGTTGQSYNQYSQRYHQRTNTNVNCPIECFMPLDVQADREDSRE

Question: How did the reflectance signal turn out when “monoclonal antibody FDC-6, produced by the hybridoma ATCC HB 9018” was run?
Answer: 0.315

Source: patent publication US20060024723A1
